Experimental data from patent US20070178575A1, “Identification Of A Nitrilase From B. Japonicum By Rational Genome Mining And Methods Of Use” (priority 2005, published 2007).

Legend:
N#CCc1ccccc1 = test system: T1, N#CCc1ccccc1; assay: Measurement of kinetic parameters (Bertholet ammonia assay, purified enzyme); type: biochemical, Bradyrhizobium japonicum USDA110; details: other: purified nitrilase, potassium phosphate buffer pH 7.2, 30° C.
T1 construct: His tag (C); made in house; host or cells: E. coli Rosetta(DE3)pLysS (plasmid pLH10.3, pET22b)
Procedure: (§1) The standard assays were carried out by mixing the substrate nitrile and purified nitrilase enzyme in potassium phosphate buffer (100 mM, pH 7.2). The reaction mixture was incubated at 30° C. Samples (100 μL) of the reaction mixture were withdrawn at several time intervals and quenched with 10 μl of 1 M HCl. The amount of ammonia produced in the reaction was measured using Bertholet assay as follows: A 100 μL aliquot of each of the following assay reagents was added subsequently: 0.02 M NaOCl, 0.33 M sodium phenoxide and 0.01% sodium nitroprusside solution. The mixture was then heated at 95° C. for 2 min, cooled rapidly in ice-water bath, and 200 μl of the mixture was then placed in a 96-well plate to measure the absorbance at 640 nm using SpectraMax M2 microplate reader (Molecular Devices). The amount of ammonia released during the hydrolysis was calculated by comparison with the standard curve obtained with standard ammonium chloride solution, and the activity was defined as the number of μmol of ammonia produced in 1 minute by 1 mg of enzyme (μmol·min^−1·mg^−1). […], activity assays were performed with different substrate concentrations, and Vmax and Km were calculated by best fitting the curve to experimental data according to Michaelis equation.

N#CC(O)c1ccccc1 = test system: T2, N#CC(O)c1ccccc1; assay: as above; type: biochemical, Bradyrhizobium japonicum USDA110; details: other: purified nitrilase, potassium phosphate buffer pH 7.2, 30° C.
T2 construct: His tag (C); made in house; host or cells: E. coli Rosetta(DE3)pLysS (plasmid pLH10.3, pET22b)
Procedure: as §1

In the case of “nitrilase bll6402 (Bradyrhizobium diazoefficiens USDA 110)”, the Km (N#CCc1ccccc1) was 100 µM, the Vmax (N#CCc1ccccc1) was 2.2 U/mg and the kcat (N#CCc1ccccc1) was 1.36 s⁻¹. It also gave a kcat/Km (N#CCc1ccccc1) of 13600 s^−1M^−1, a Km (N#CC(O)c1ccccc1) of 260 µM and a Vmax (N#CC(O)c1ccccc1) of 44.7 U/mg. It also gave a kcat (N#CC(O)c1ccccc1) of 27.0 s⁻¹ and a kcat/Km (N#CC(O)c1ccccc1) of 104000 M⁻¹ s⁻¹.
